Molecular target: T1, Recombinant human VEGF R2 (R&D Systems, #357-KD) (human, UniProt P35968 20-764)
T1 construct: Immobilized by amine coupling on a CM5 chip (approx. 9,500 RU)
Test: SPR (BIAcore T200): VEGF-A-121 (10 nM, pre-incubated with COMP-anti-VEGF-Fab) injected over amine-coupled VEGF R2
Procedure: Binding was investigated by surface plasmon resonance using a BIAcore T200 instrument (GE Healthcare). All experiments were performed at 25° C. using HBS-P (10 mM HEPES, 140 mM NaCl, 0.05% PS20, pH 7.4) as running and dilution buffer. Recombinant human VEGF R2 (R&D Systems, #357-KD) was immobilized on a Series S CM5 Sensor Chip (GE Healthcare) using standard amine coupling chemistry resulting a surface density of approx. 9,500 RU. […] Subsequently the surface was regenerated by injecting 10 mM Glycine solution (pH 2.0) for 60 sec., followed by 5 mM NaOH for 60 sec. at a flow rate of 5 μl/min. Bulk refractive index differences were corrected by subtracting the response obtained from a mock surface. Blank injections were subtracted (double referencing). The derived binding signals (resonance units RU) were plotted against the antibody concentrations to calculate IC₅₀ values.

T1 sequence (P35968 20-764 limits assumed): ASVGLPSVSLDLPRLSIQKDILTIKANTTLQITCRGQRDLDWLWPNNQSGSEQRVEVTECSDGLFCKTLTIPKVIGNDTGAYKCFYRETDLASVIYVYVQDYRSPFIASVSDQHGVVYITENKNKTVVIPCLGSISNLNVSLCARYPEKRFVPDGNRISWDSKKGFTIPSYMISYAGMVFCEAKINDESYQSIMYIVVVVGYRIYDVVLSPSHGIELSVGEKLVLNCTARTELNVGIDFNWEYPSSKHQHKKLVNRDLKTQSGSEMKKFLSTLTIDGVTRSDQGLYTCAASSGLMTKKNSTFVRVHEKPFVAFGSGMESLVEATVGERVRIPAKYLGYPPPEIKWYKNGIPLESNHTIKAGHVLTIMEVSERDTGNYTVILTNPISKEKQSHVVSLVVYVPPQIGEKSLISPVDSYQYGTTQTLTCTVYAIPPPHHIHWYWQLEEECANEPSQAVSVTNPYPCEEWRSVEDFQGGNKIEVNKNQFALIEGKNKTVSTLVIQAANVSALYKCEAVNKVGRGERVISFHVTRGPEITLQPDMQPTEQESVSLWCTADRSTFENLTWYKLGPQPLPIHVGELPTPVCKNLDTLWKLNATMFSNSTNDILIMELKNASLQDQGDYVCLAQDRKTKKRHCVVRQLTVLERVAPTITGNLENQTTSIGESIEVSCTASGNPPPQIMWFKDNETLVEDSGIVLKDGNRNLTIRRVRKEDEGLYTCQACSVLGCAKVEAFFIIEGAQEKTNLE

binding result: binds
B1: VEGF-A-121 (ligand, UniProt P15692-9 27-147, looked up)
chain: APMAEGGGQNHHEVVKFMDVYQRSYCHPIETLVDIFQEYPDEIEYIFKPSCVPLMRCGGCCNDEGLECVPTEESNITMQIMRIKPHQGQHIGEMSFLQHNKCECRPKKDRARQEKCDKPRR
notes: Used at 10 nM in solution, pre-incubated with the antibody molecules

Source: patent US20200399341A1 (Hoffmann-La Roche, published 2020)
